Results from US20120065146A1.
Non-standard residues stand in square brackets, D forms with d. No end group written: not given here. pT = C[C@@H](OP(=O)(O)O)[C@H](N)C(=O)O

Molecular target: HA-EGFP-Plk1, P53350
Assay: ELISA competition
Details: remark: other sources report otherwise

Sequence of HA-EGFP-Plk1, P53350 (P53350 whole entry): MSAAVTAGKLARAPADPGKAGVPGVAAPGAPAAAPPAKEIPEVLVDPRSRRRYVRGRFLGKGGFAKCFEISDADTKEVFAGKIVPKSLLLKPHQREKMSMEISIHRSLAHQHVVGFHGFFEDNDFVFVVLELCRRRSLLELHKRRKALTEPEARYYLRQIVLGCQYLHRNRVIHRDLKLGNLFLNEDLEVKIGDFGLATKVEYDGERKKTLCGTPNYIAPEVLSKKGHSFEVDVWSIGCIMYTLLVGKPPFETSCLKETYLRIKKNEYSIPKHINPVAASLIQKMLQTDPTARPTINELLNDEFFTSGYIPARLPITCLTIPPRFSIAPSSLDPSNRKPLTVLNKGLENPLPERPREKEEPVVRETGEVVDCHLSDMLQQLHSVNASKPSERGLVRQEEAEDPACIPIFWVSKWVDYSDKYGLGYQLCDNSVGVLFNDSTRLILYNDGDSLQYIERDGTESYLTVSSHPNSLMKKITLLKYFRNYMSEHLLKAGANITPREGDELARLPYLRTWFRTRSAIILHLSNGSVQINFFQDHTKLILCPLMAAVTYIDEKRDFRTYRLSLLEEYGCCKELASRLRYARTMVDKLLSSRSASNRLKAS

Row | fold decrease in binding against 3l [fold] | fold loss of binding affinity [fold] | Binder
1 | 100 | – | PLHA[pT] (also: further groups not given here) [peptide 5 (Example 15), S/A mutant of 3l]
2 | – | > 100 | PLHA[pT] (also: Pro 1 modified as in ether analogue 7 (structure not given here)) [peptide 9 (Example 12), S/A mutant of 7]
3 | – | > 100 | PLHA[pT] (also: Pro 1 modified as in ether analogue 8 (structure not given here)) [peptide 11 (Example 12), S/A mutant of 8]
